Reference: the supplement of paper PMC12764529

experiment: folding stability dG unfold (combined trypsin and chymotrypsin); higher = more stable
Experimental: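 Folding stability of de novo designed mini-proteins (<80 aa, no Cys; designed by TrROS, TrMRF, ProteinMPNN and the joint model) was measured by cDNA display proteolysis with trypsin and chymotrypsin. Each protease was used at 11 concentrations in a threefold dilution series plus a no-protease condition. K50 was inferred by Bayesian fitting of sequencing counts, and dG unfold was derived against a sequence-predicted unfolded-state K50 (Tsuboyama et al. method). Sequences shown include variable-length N-terminal GS-type padding (SAGGSAGG...) inside a display construct carrying a PA tag. Rows were kept only if the AF2 dimer inter-PAE was >15, to exclude likely homo-oligomers.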

Sequence | folding stability dG unfold
SAGGSAGGSTVPQSLPDSTATISSGPGGTWTVTFYPDEGSRTLTLPRSVVDASPVPLTELVSSSAGGSAGGS [r20_90_JUSTAS] | < -1 kcal/mol
SAGGSAGGSVIEKDPDDTILLKLEIPEEGKESLVTLPKDEVEKVIEEKGVKKLTALKLGEPKPSAGGSAGGS [r12_294_JUSTAS] | < -1 kcal/mol
SAGGSAMKDFADAPGITDIHPYPDGTISIHFKSSPNARDKIVEALRKEGNIDIKTHPDHGMIRIKVSAGGSA [r15_554_TrROS] | < -1 kcal/mol
SAGGSAPPKIDIDVEPNPEEGYYRVTVEFPDGWPLKIPYPYPDPEDNKRNAKKHVKWILKKHEELLSAGGSA [r15_477_TrROS] | < -1 kcal/mol
SAGGSARWMEYQIPFKSPQKREKLKEALMEHPGISEVDWPPNGTINITIPRDNPNRIKKAAKKAGFSAGGSA [r15_834_TrROS] | < -1 kcal/mol
SAGGSASSIPPGKILSKKEFEVELPDGKKLKITILEVPGPTLALTEEPGEKKPKTYKVEELKKLLESAGGSA [r15_329_JUSTAS] | < -1 kcal/mol
SAGGSATITLKPGEKVEITVTITVTEYKYDKNGKLVEKKTYKITVKATFTVDEDGNIHVEIKIEIESAGGSA [r2_154_TrROS_Hall] | > 6 kcal/mol
SAGGSEEEKAAKEAAEKELPPAEPKPVLTPDGVVTTYYPVTGAVEVTRYERDAAGVPVKVSSTTDPKSAGGS [r16_243_JUSTAS] | < -1 kcal/mol
SAGGSGMAEAEALAAELAAATEKTPLGRTATVSVDTEVRPETGLTLLTVTTTGPGAPTTTPTTLPGRSAGGS [r16_812_JUSTAS] | < -1 kcal/mol
SAGGSGMNITVEPVLSPDGTLTVTTTDPATGKTVSTTTTPVPRGPLPPPVRPLLGLDDRNGRPLLLSAGGSA [r2_78_JUSTAS] | < -1 kcal/mol
SAGGSLEEIADELAQKPGFDEVKIDVWKPPNGNFMLSVHNKENNRELQIPLPPNWKPVGTYELPVKSAGGSA [r2_74_TrROS] | < -1 kcal/mol
SAGGSMITKETFPGSEVLTYPEKGIRVELDDKNVTVYDIKPLPGKGEPVVLSSKTISKEELEKLIKSSAGGS [r8_174_JUSTAS] | < -1 kcal/mol
SAGGSMTPAELANEIAEKLHEELPPDKSVTITMRFGSGPVTLTIPPDARVDVPEDRPLEVDEISIGSAGGSA [r2_391_JUSTAS] | < -1 kcal/mol
SAGGSMTVKEFTDPEEVEKAVEEMDSNEVAVMPVPERPVERVFTKINDKVIRETINGETVTTEELLSAGGSA [r2_280_JUSTAS] | < -1 kcal/mol
SAGGSPVLVPLEREETDPARGTRTRTRAYRLPERDIALVEREEIPFAPDGTPLRRTSEEVVSLEELLESAGG [r13_807_JUSTAS] | < -1 kcal/mol
SAGGSWIEKLPPDYTILLEKPDGTPFTRKIPANASEEEVLALNPPGSSKIELVSLDPSGRAVWRTPGSAGGS [r16_103_JUSTAS] | < -1 kcal/mol
SAGGTIKEIFEKNGAEIETNPGQGVVTVEMRKPKRDDNGMPKPKPKGKHEIKVPGGDPEQALDNLLKHSAGG [r13_924_TrROS] | < -1 kcal/mol
SAGGVDLSTLPSNSTVTLTEEKVIPVTKGSPKGSGKGYIETTTTTYTAVPPTGTWLSTTTPSISIIESAGGS [r8_486_JUSTAS] | < -1 kcal/mol
SAGGVSIEKDVTSSDELLAALPPDRPVRIEYTPPDGSSRELEVDPADLSLDIPAGVKYKVRIEVLPPESAGG [r13_461_JUSTAS] | < -1 kcal/mol
SAGLYLVKNKETKEIVTVPAENLSDEQLKAGFEVVKLPPVKINITVESAEEAEALAKLFPDKVEVTVNESAG [r14_638_TrROS_Hall] | < -1 kcal/mol
SAGMFYVLKTKRPTPSAPPEVLAADPNAEVETEYKLSPDTSEEEIKKIKEELKNKGWKEVKLVPISELKSAG [r5_60_JUSTAS] | < -1 kcal/mol

Sequence | folding stability dG unfold
SAGMSTSSPTAKSTVLETSEEGNTVTKKVKVTTPSKDSSGNSSTTTTTTTITTELKGKPEPKTPEYYAKSAG [r5_70_JUSTAS] | < -1 kcal/mol
SAGMTINNTGSVEELKKLPDVVEIEKEGNKYTIKMPGETVEVELNPPKPVPKGPPYTSESEKKKKSEKSSAG [r5_2_JUSTAS] | < -1 kcal/mol
SAGMVKEVKSEEEAKKLPPGTLVKLTKPDPTSNKDVTYYRTYPDGSGGILAKSDSSGKVDLTPEIKKILSAG [r5_490_JUSTAS] | < -1 kcal/mol
SAGMVLAPSTTETRLPGLRVRTETVVTTELAPDGRPTDVVAPTTTVTVTPPAPPPVFTEESVAAAFELESAG [r14_442_JUSTAS] | < -1 kcal/mol
SAGPKINLYRLPNGFLAAKSRSTRPDGKELGTWEKTYLVPGSGKPRTLELPIYDNEKGYVIYAYEEDYSAGG [r19_185_TrMRF] | < -1 kcal/mol
SAGPPEPITWKIRNPKNGKKRKIQIWQPDEQMAVQIRDPNDGKPRREIPMPLEEARDLLKSDGFEVEPVSAG [r5_291_TrROS] | < -1 kcal/mol
SAGSELLEKFPNVKVEEYEEEIEFSPEKKEEKEEVDETDGNTITYKKIEVLPEGKAKVKIYTAKLPEVSAGG [r19_125_JUSTAS] | < -1 kcal/mol
SAMEISIDPIEDGPVRVTETYKFPGYTRITVKEIPKELLEKGVPLSELPNVPVLEEEIVEIPPPSPELKSAG [r14_856_JUSTAS] | < -1 kcal/mol
SAMKPGTVVKVTIIPTEEKLIYNVPEKTVLKSSRTVDATVTKVSTPGSKVTLEIDLPDLPPGSEIELGLSAG [r14_412_JUSTAS] | < -1 kcal/mol
SAMTIPVLVEGDIEKLEEREEEIKREVAEELGLPEDLKDLKVEVLEIEPLPDEDGKPTKVRMLVEVHLRSAG [r14_736_TrMRF] | < -1 kcal/mol
SAMVKTKDGKELEITRKAKPDELTEEEIKALAEEEVKKLVPEDLEVEVEVEISREPDGTYVVSVPVKKKSAG [r14_389_JUSTAS] | < -1 kcal/mol
SANKFSPEEYAEWMIRTARRQVKENRQQGDPEKPKKVTIHFWEEHFPPYRKRIKKEAKEDGLPVEIEPPSAG [r14_908_TrROS] | < -1 kcal/mol
SAPPLPPDAVVETESEPVGVDPTENGTLTYYRRTVRVTLPDGSLTLESLVFRDPATGSSTSSVLRETALSAG [r14_293_JUSTAS] | < -1 kcal/mol
SASDEDQKKQQEQQKPPIKPPEFPVKLNGKKIEKIRFNPPTDRIWFEWPNGKEIPIDPGMSLEEILKKISAG [r14_59_TrROS] | < -1 kcal/mol
SASLPEKLAKELLPEAKEIKILEVKTEPDPNSDRPVTTVKMEAELEGGKKKLTVTLSPGPLKIKVTPEPSAG [r14_397_JUSTAS] | < -1 kcal/mol
SAVKVEEKDDVTIKTYTEPEGGLELVETIDKNGNLIAKTEIKVERKPDAKGNLYVTKVSTKTTVLNPNPISA [r9_262_JUSTAS] | < -1 kcal/mol
SDAIKNQTIEELLDQLPPGDEPGEPKEFTIPGYEIKITDFEPEKDDGGGPRPRRVIEVEDPNGPIEIPIESA [r9_279_TrROS] | < -1 kcal/mol
SDDDFADSPEAKKNMENMKPVPPPPTITINVKGDDPEDALDDIREHFPGLDPSNIKSVETTDGTLTITFQSA [r9_723_TrROS] | < -1 kcal/mol
SDPQQLPPELIDNIAKEFPHIKAIEIQPHPPGMVHVDAEYRDDGKEKRVEFQIPNPNGNTHQFEIEIRKPSA [r9_678_TrROS] | < -1 kcal/mol
SGDSIHIPPNDLEYAKRIVKDLLDNGRDTIMMNSPEYKKELKEALPGVKVEPVPPMPPPPPSPEDKDKLNSA [r9_639_TrROS] | < -1 kcal/mol
